The test system of series [1] is HeLa Kyoto. As to the kind of experiment: solubility in G1/S (NP-40 vs SDS abundance) (log2 ratio); higher = more soluble. The note with it: cell cycle stage: G1/S.
Series [2] deals with HeLa Kyoto. As to the kind of experiment: melting temperature (median over replicates), in situ; higher = more thermally stable.
The test system of series [3] is HeLa Kyoto. The series can be described thus: solubility change mitosis vs G1/S (difference of NP-40 vs SDS log2 ratios) (log2 ratio difference); higher = more soluble in mitosis.
The subject of series [4] is HeLa Kyoto. The series can be described thus: thermal stability score vs G1/S (z-score of summed log2 fold changes over temperatures); higher = more thermally stable than in G1/S.
The mark [5] stands for this setting: cell cycle stage: early G1 (4.5 h after nocodazole release).
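For melting temperature (median over replicates), in situ in this document: HeLa Kyoto cells synchronized by double thymidine or nocodazole block, proteins quantified by TMT10plex mass spectrometry, three independent biological replicates.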
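For solubility change mitosis vs G1/S (difference of NP-40 vs SDS log2 ratios) in this document: synchronized HeLa Kyoto cells (double thymidine block for G1/S, nocodazole release for mitosis), protein amounts in NP-40 versus SDS lysates quantified by mass spectrometry, three biological replicates.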
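For solubility in G1/S (NP-40 vs SDS abundance) in this document: HeLa Kyoto cells arrested at G1/S by double thymidine block, proteins quantified by TMT10plex mass spectrometry in mild NP-40 versus SDS extracts, three biological replicates.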
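For thermal stability score vs G1/S (z-score of summed log2 fold changes over temperatures) in this document: synchronized HeLa Kyoto cells, proteins quantified by TMT10plex mass spectrometry, three biological replicates, mitosis taken 0.5 h after nocodazole release, G1/S directly after double thymidine block.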

Take “MSECGGRGGGSSSSEDAEDEGGGGGGPAGSDCLSSSPTLATASSAGRLRRGLRGAFLMARQRPELLCGAVALGCALLLALKFTCSRAKDVIIPAKPPVSFFSLRSPVLDLFQGQLDYAEYVRRDSEVVLLFFYAPWCGQSIAARAEIEQAASRLSDQVLFVAINCWWNQGKCRKQKHFFYFPVIYLYHRSFGPIEYKGPMSAVYIEKFVRRVMKPLLYIPSQSELLDFLSNYEPGVLGYFEFSGSPQPPGYLTFFTSALHSLKKALESTSSPRALVSFTGEWHLETKIYVLDYLGTVRFGVITNKHLAKLVSLVHSGSVYLHRHFNTSLVFPREVLNYTAENICKWALENQETLFRWLRPHGGKSLLLNNELKKGPALFLFIPFNPLAESHPLIDEITEVALEYNNCHGDQVVERLLQHLRRVDAPVLESLALEVPAQLPDPPTITASPCCNTVVLPQWHSFSRTHNVCELCVNQTSGGMKPSSVSVPQCSFFEMAAALDSFYLKEQTFYHVASDSIECSNFLTSYSPFSYYTACCRTISRGVSGFIDSEQGVFEAPTVAFSSLEKKCEVDAPSSVPHIEENRYLFPEVDMTSTNFTGLSCRTNKTLNIYLLDSNLFWLYAERLGAPSSTQVKEFAAIVDVKEESHYILDPKQALMKLTLESFIQNFSVLYSPLKRHLIGSGSAQFPSQHLITEVTTDTFWEVVLQKQDVLLLYYAPWCGFCPSLNHIFIQLARNLPMDTFTVARIDVSQNDLPWEFMVDRLPTVLFFPCNRKDLSVKYPEDVPITLPNLLRFILHHSDPASSPQNVANSPTKECLQSEAVLQRGHISHLEREIQKLRAEISSLQRAQVQVESQLSSARRDEHRLRQQQRALEEQHSLLHAHSEQLQALYEQKTRELQELARKLQELADASENLLTENTWLKILVATMERKLEGRDGAESLAAQREVHPKQPEPSATPQLPGSSPPPANVSATLVSERNKENRTD [TXNDC11]”: in the series on HeLa Kyoto [1], the “solubility in G1/S (log2)” value is -0.00943. Further, in the series with HeLa Kyoto [2] (cell cycle stage: G1/S), the melting temperature amounted to 53.5 °C. The “solubility change mitosis (log2)” value in the series on HeLa Kyoto [3] was -0.134. Also, the thermal stability score with HeLa Kyoto [4] (setting [5]) is 0.926; in the series with HeLa Kyoto [4] (cell cycle stage: mitosis), 2.27.
For “MSEEIITPVYCTGVSAQVQKQRARELGLGRHENAIKYLGQDYEQLRVRCLQSGTLFRDEAFPPVPQSLGYKDLGPNSSKTYGIKWKRPTELLSNPQFIVDGATRTDICQGALGDCWLLAAIASLTLNDTLLHRVVPHGQSFQNGYAGIFHFQLWQFGEWVDVVVDDLLPIKDGKLVFVHSAEGNEFWSALLEKAYAKVNGSYEALSGGSTSEGFEDFTGGVTEWYELRKAPSDLYQIILKALERGSLLGCSIDISSVLDMEAITFKKLVKGHAYSVTGAKQVNYRGQVVSLIRMRNPWGEVEWTGAWSDSSSEWNNVDPYERDQLRVKMEDGEFWMSFRDFMREFTRLEICNLTPDALKSRTIRKWNTTLYEGTWRRGSTAGGCRNYPATFWVNPQFKIRLDETDDPDDYGDRESGCSFVLALMQKHRRRERRFGRDMETIGFAVYEVPPELVGQPAVHLKRDFFLANASRARSEQFINLREVSTRFRLPPGEYVVVPSTFEPNKEGDFVLRFFSEKSAGTVELDDQIQANLPDEQVLSEEEIDENFKALFRQLAGEDMEISVKELRTILNRIISKHKDLRTKGFSLESCRSMVNLMDRDGNGKLGLVEFNILWNRIRNYLSIFRKFDLDKSGSMSAYEMRMAIESAGFKLNKKLYELIITRYSEPDLAVDFDNFVCCLVRLETMFRFFKTLDTDLDGVVTFDLFKWLQLTMFA [CAPN1]”, the “solubility in G1/S (log2)” value in the series on HeLa Kyoto [1] was -0.203. Moreover, the melting temperature came out at 55.9 °C with HeLa Kyoto [2] (cell cycle stage: G1/S) and 56.5 °C in the series with HeLa Kyoto [2] (cell cycle stage: mitosis). For the same sequence, the “solubility change mitosis (log2)” value with HeLa Kyoto [3] is -0.164. The thermal stability score in the series on HeLa Kyoto [4] (setting [5]) was -0.914; with HeLa Kyoto [4] (cell cycle stage: mitosis), -1.67.
Consider “MSEGNAAGEPSTPGGPRPLLTGARGLIGRRPAPPLTPGRLPSIRSRDLTLGGVKKKTFTPNIISRKIKEEPKEEVTVKKEKRERDRDRQREGHGRGRGRPEVIQSHSIFEQGPAEMMKKKGNWDKTVDVSDMGPSHIINIKKEKRETDEETKQILRMLEKDDFLDDPGLRNDTRNMPVQLPLAHSGWLFKEENDEPDVKPWLAGPKEEDMEVDIPAVKVKEEPRDEEEEAKMKAPPKAARKTPGLPKDVSVAELLRELSLTKEEELLFLQLPDTLPGQPPTQDIKPIKTEVQGEDGQVVLIKQEKDREAKLAENACTLADLTEGQVGKLLIRKSGRVQLLLGKVTLDVTMGTACSFLQELVSVGLGDSRTGEMTVLGHVKHKLVCSPDFESLLDHKHR [POLR3D]”, for which the “solubility in G1/S (log2)” value in the series with HeLa Kyoto [1] was determined as 0.144. In addition, the melting temperature in the series on HeLa Kyoto [2] (cell cycle stage: mitosis) turned out to be 48.8 °C. The “solubility change mitosis (log2)” value in the series on HeLa Kyoto [3] was -0.118. In addition, the figures for the thermal stability score with HeLa Kyoto [4] (setting [5]) and with HeLa Kyoto [4] (cell cycle stage: mitosis) were -0.688 and -1.1, respectively.

The values are drawn from the supplement of paper PMC5998384.
